As a reminder, the stoichiometry N is a count of units in the complex or per binding partner.

Among the data in paper PMC13245265 are stoichiometry N values, retold here.

For the assay, the target named is Tectus dentatus superoxide dismutase 1 (Tectus dentatus). The assay can be described thus: SEC.

The substance “Tectus dentatus superoxide dismutase 1 (enzyme)” displayed a stoichiometry N of 2.
